Reference: US20060257407A1 (Janssen / Centocor, published 2006)
Like-named read-outs stand apart in the source and are kept apart here.

Key:
[1] = target: recombinant human IL-6 (human) (UniProt P05231); test: KinExA 3000
[2] = target: recombinant human IL-6 (human) (UniProt P05231); test: cell-based or functional assay
[3] = target: recombinant human IL-6 (human) (UniProt P05231); test: calculated, KinExA 3000
[4] = target: recombinant human IL-6 (human) (UniProt P05231); test: cell-based or functional assay; remark: listed apart in the source
[5] = target: recombinant human IL-6 (human) (UniProt P05231); test: calculated from KD = koff/kon, KinExA 3000
[6] = target: recombinant human IL-6 (human) (UniProt P05231); test: KinExA 3000, IgG at 200 pM mixed with 100-200 pM human IL-6, free IgG over time
[7] = target: recombinant human IL-6 (human) (UniProt P05231); test: KinExA 3000, equilibrium in solution, IgG at 5 pM with serially diluted human IL-6, 20 C
[8] = target: IL-6/sIL-6R complex (human) (UniProt P08887); test: ELISA: sIL-6R coated at 10 µg/ml, human IL-6 added at 200 ng/ml, antibody dilutions, detection with HRP-anti-human IgG, OD490
[9] = target: recombinant human IL-6 (human) (UniProt P05231); test: ELISA: IgG dilutions captured on goat anti-human kappa, biotinylated IL-6 at 200 ng/ml, NeutrAvidin-alkaline phosphatase, O.D. 560 after 15 min
[10] = target: T1, recombinant human IL-6 (human, UniProt P05231 30-212); test: KinExA 3000
T1 construct: Bought from R&D Systems (206-IL-010); Biotinylated or coupled to beads in some assays; also called hIL-6; rhIL-6
Method: (§1) The KinExA 3000 instrument, manufactured by Sapidyne, was used to measure binding kinetics. Briefly, human IL-6 was covalently coupled to alzactone beads and the binding of free IgG to the beads was detected on the instrument. […] For example, the chimeric anti-IL-6 antibody was used at a constant concentration of 5 pM and individual tubes were incubated with 0-200 pM of IL-6. Incubations for the other IgGs were set in a similar manner. After the incubation, free IgG in each equilibrated sample was determined on the KinExA 3000 instrument according to the manufacturer's instructions. KD values were determined by the KinExA 3000 software using the KinExA 3000 instrument, as described in more detail below.
(§2) To measure kₒₙ, individual IgGs at 200 pM were mixed with 100-200 pM of human IL-6 and the unbound IgG was detected by binding to human IL-6 covalently coupled to alzactone beads on the KinExA 3000 instrument. A series of measurements were taken over time. The resulting data was used to calculate the kₒₙ with the KinExA 3000 software. koff was calculated by using the formula KD=koff/kₒₙ.

[11] = target: T1, recombinant human IL-6; test: calculated, KinExA 3000
Method: as §1, §2

[12] = target: T1, recombinant human IL-6; test: calculated from KD = koff/kon, KinExA 3000
Method: as §1, §2

[13] = target: T1, recombinant human IL-6; test: KinExA 3000, IgG at 200 pM mixed with 100-200 pM human IL-6, free IgG over time
Method: as §2

[14] = target: T1, recombinant human IL-6; test: KinExA 3000, equilibrium in solution, IgG at 1 pM with serially diluted human IL-6, 20 C
Method: as §1

[15] = target: T2, IL-6/sIL-6R complex (human, UniProt P08887 20-358, limits assumed); test: EIA: sIL-6R coated, 200 ng/ml human IL-6, antibody dilutions from 10 ug/ml, anti-human IgG-HRP
T2 construct: Formed on the plate: sIL-6R coated at 10 ug/ml, then human IL-6 added at 200 ng/ml; also called sIL-6/sIL-6R complex; IL-6/IL-6R complex
Method: Costar EIA plates (Corning/Costar, Acton, Mass.) (Catalog # 9018) were coated with sIL-6R (10 μg/ml in PBS, 100 μl/well) overnight at 4° C. The plates were washed with 0.15M saline containing 0.02% (v/v) Tween 20 and wells were blocked with 1% (w/v) BSA in PBS, 200 μl/well for one hour at room temperature. The wells were washed again then in the sequential format incubated with 200 ng/ml human IL-6 (100 μl/well) in PBS for one hour at room temperature. Antibody was added to all wells in 10-fold serial dilutions from a starting concentration of 10 μg/ml in 100 μl/well for one hour at room temperature. After washing, the wells were incubated with goat anti-human IgG (H+L)-HRP-linked, (10 μg/ml in PBS) for 30 minutes at room temperature. The wells were washed and 100 μl/well of citrate-phosphate substrates solution (0.1M Citric Acid and 0.2M Sodium Phosphate, 0.01% H₂O₂ and 1 mg/ml OPD) was added for 15 minutes at room temperature. The reaction was stopped by addition of 25 μl/well of 4N sulfuric acid and the OD₄₉₀ was read via an automated ELISA plate reader (Molecular Devices Spectromax Plus, Sunnyvale, Calif.).
In addition, AME-A9, AME-A16, AME-18a, AME-20b, AME-22a, and AME-23a can detect IL-6 bound to sgp80 (sIL-6R) in a dose dependent manner using EIA. […] However, preincubation of IL-6 and any of these anti hIL-6 monoclonal antibodies precludes the ability of sIL-6R to bind IL-6.

[16] = target: T1, recombinant human IL-6; test: ELISA: IgG dilutions captured on goat anti-human kappa, biotinylated IL-6 at 200 ng/ml, NeutrAvidin-alkaline phosphatase, O.D. 560 after 15 min
Method: The ELISA generally used Costar 3366 microtiter plates coated with a goat anti-human kappa antibody. Dilutions of Fab (or IgG) were incubated in the coated wells for 1 hr at 22° C. The wells were then washed with PBS, 0.1% Tween 20 and biotinylated IL-6 at 200 ng/ml was added for 1 hour. After washing, an alkaline phosphatase conjugate of NeutrAvidin was added and incubated for 1 hour at 22° C. A colorimetric substrate was added after extensive washing and the bound IL-6 was determined. A variation of this ELISA included an extended wash step in a beaker of PBS, 0.01% BSA at 37° C. after the biotinylated IL-6 incubation, e.g., an 18 hour extended wash step.

[17] = target: T1, recombinant human IL-6; test: KinExA 3000, equilibrium in solution, IgG at 0.5 pM with serially diluted human IL-6, 20 C
Method: as §1

T1 sequence (P05231 30-212 limits assumed): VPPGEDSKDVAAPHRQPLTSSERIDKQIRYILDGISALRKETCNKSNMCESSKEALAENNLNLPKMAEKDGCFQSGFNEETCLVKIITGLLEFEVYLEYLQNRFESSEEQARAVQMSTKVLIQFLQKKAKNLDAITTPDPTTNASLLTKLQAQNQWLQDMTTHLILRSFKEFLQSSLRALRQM
T2 sequence (chain, as listed by the source limits assumed, chain 1 of 2): as the sequence (P05231 30-212 limits assumed) above
T2 sequence (P08887 20-358 limits assumed, chain 2 of 2): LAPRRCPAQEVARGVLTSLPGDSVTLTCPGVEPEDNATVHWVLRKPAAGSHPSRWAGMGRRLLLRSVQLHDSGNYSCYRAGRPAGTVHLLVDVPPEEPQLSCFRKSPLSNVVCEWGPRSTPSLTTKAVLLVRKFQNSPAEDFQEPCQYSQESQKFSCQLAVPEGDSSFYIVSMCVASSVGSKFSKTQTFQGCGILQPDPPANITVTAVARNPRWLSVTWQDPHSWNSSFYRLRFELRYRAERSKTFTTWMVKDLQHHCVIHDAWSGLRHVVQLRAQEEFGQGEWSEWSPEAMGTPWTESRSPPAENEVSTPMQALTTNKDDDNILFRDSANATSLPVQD
Chain of recombinant human IL-6 (human) (P05231 30-212 limits assumed): as the sequence (P05231 30-212 limits assumed) above
Chain of IL-6/sIL-6R complex (human) (chain, as listed by the source limits assumed, chain 1 of 2): as the sequence (P05231 30-212 limits assumed) above
Chain of IL-6/sIL-6R complex (human) (P08887 20-358 limits assumed, chain 2 of 2): as the sequence (P08887 20-358 limits assumed, chain 2 of 2) above

Binder	Improvement Ratio of KD (as compared to chimeric ab) [1]	Improvement Ratio of kon (against chimeric antibody) [1]	EC50, growth of IL-6 dependent 7TD1 cells with 500 pg/ml human IL-6 (ATPlite) [2]	Improvement Ratio of koff (against chimeric antibody) [3]	EC50, growth of IL-6 dependent 7TD1 cells with 500 pg/ml human IL-6 (ATPlite) [4]	koff [5]	kon [6]	Kd [7]	EC50 (read off the curve) [8]	EC50 (read off the curve) [9]	Improvement Ratio of KD (as compared to chimeric ab) [10]	Improvement Ratio of kon (against chimeric antibody) [10]	Improvement Ratio of koff (against chimeric antibody) [11]	koff [12]	kon [13]	Kd [14]	binding result [15]	EC50 (read off the curve) [16]	Kd [17]
chimeric anti-IL-6 antibody CNTO 328 (antibody, INN chains, looked up, V domains shown, biotinylated in competition ELISA) VH: EVQLVESGGKLLKPGGSLKLSCAASGFTFSSFAMSWFRQSPEKRLEWVAEISSGGSYTYYPDTVTGRFTISRDNAKNTLYLEMSSLRSEDTAMYYCARGLWGYYALDYWGQGTSVTVSS VL: QIVLIQSPAIMSASPGEKVTMTCSASSSVSYMYWYQQKPGSSPRLLIYDTSNLASGVPVRFSGSGSGTSYSLTISRMEAEDAATYYCQQWSGYPYTFGGGTKLEIK	1 fold	1 fold	27 pM	1 fold	0.00409 µg/mL	1.3e-05 s⁻¹	4.4e+06 M⁻¹ s⁻¹	3 pM	0.01 µg/mL	0.1 µg/mL									
AME-20b (antibody, V domains shown, Tested as IgG; also called 140) VH: EVQLVESGGGLVQPGGSLRLSCAASGFQFSSFAMSWVRQAPGKGLEWVAKISPGGSYTYYSDTVTGRFTISRDNAKNSLYLQMNSLRAEDTAVYYCARQLWGYYALDIWGQGTTVTVSS VL: EIVLTQSPATLSLSPGERATLSCSASISVSYMYWYQQKPGQAPRLLIYDMSNLASGIPARFSGSGSGTDFTLTISSLEPEDFAVYYCMQWSGYPYTFGGGTKVEIK											3.8 fold	1 fold	3.5 fold	3.7e-06 s⁻¹	4.7e+06 M⁻¹ s⁻¹	0.78 pM	binds		
AME-16 (antibody, V domains shown, Tested as IgG; also called AME-A16; 106) VH: EVQLVESGGGLVQPGGSLRLSCAASGFTFSSFAMSWVRQAPGKGLEWVAKISPGGSYTYYPDTVTGRFTISRDNAKNSLYLQMNSLRAEDTAVYYCARQLWGYYALDYWGQGTTVTVSS VL: EIVLTQSPATLSLSPGERATLSCSASSSVSYMYWYQQKPGQAPRLLIYDTSNLASGIPARFSGSGSGTDFTLTISSLEPEDFAVYYCSQWSGYPYTFGGGTKVEIK											3.6 fold	0.22 fold	15.7 fold	8.3e-07 s⁻¹	1e+06 M⁻¹ s⁻¹	0.83 pM	binds	~0.07 µg/mL	
AME-18a (antibody, V domains shown, Tested as IgG; also called 130) VH: EVQLVESGGGLVQPGGSLRLSCAASGFQFSPFAMSWVRQAPGKGLEWVAKISPGGSWTYYSDTVTGRFTISRDNAKNSLYLQMNSLRAEDTAVYYCARQLWGYYALDIWGQGTTVTVSS VL: EIVLTQSPATLSLSPGERATLSCSASSSVSYMYWYQQKPGQAPRLLIYDFSNLASGIPARFSGSGSGTDFTLTISSLEPEDFAVYYCMQWSGYPYTFGGGTKVEIK											25 fold	4.4 fold	5.4 fold	2.4e-06 s⁻¹	2e+07 M⁻¹ s⁻¹		binds	~0.09 µg/mL	0.12 pM
